B1: HDV Ribozyme (parent)
chain: GGCCGGCAUGGUCCCAGCCUCCUCGCUGGCGCCGGCUGGGCAACAUUCCGAGGGGACCGUCCCCUCGGUAAUGGCGAAUGGGACCCA

The data set covers variants of B1. Put plainly: self-cleavage, relative activity (ratio to wild type); higher = more cleavage; co-transcriptional.
GGCCGGCAUGAUCCCAGCCUCCUCGCGGGCGCCGGCUGGGCAACAUUCCGAGGGGACCGUCCCCUCGGUAAUGGCGAAUGGGACCCA [G11A U27G]: the self-cleavage was determined as 0.359.
The result for GGCCGGCAUGGUCCCAGCCUCCUCGCUGGCGCGGGCUGGGCAACAUUCCGAGGGGACCGUCCCCUCGGUAAUGGCGAAUGAGACCCA [C33G G81A] reads 0.128; that for GGCCGGCAUGGUCCCAGCCUCCUCGCUGGCGCCGGCUGGGCUACAUUCCGAGGGGACGGUCCCCUCGGUAAUGGCGAAUGGGACCCA [A42U C58G], 0.443; that for GGCCGUCAUGGUCCCAGCCUCCUCGCUGGCGCCGACUGGGCAACAUUCCGAGGGGACCGUCCCCUCGGUAAUGGCGAAUGGGACCCA [G6U G35A], 0.208.
In the case of GGCCGACAUGGUCCCAGCCUCCUCGCUGGCGCCGGCUGGGCAACAUUCCGAGGGGACCGUCCCCUCGGUAAUGGCGAAGGGGACCCA [G6A U79G], the self-cleavage was determined as 0.227.
The same measure for GGCCGGCAUGGUCCCAGCCUCCUCGCUGGCGUCGGCUGGGCAACAUUCCGAGGGGACCGUCCCCUCGGUAAUGGCGAAUGGGACCCG [C32U A87G]: 0.787; for GGCCGGCAUGGUCCCAGCCUCCUCGCUGGGGCCGGCUGGGGAACAUUCCGAGGGGACCGUCCCCUCGGUAAUGGCGAAUGGGACCCA [C30G C41G]: 0.0707.
The same measure for GGCCGGCAUGGUCCCAGCCUCUUCGCUGGCUCCGGCUGGGCAACAUUCCGAGGGGACCGUCCCCUCGGUAAUGGCGAAUGGGACCCA [C22U G31U]: 0.0817; for GGCCGGCAUGGUCCCAGCCUCCUCUCUGGCGCCGGAUGGGCAACAUUCCGAGGGGACCGUCCCCUCGGUAAUGGCGAAUGGGACCCA [G25U C36A]: 0.106; for GGCCGGCAUGGUCCCAGCCUCCUCGCUGGCGCCGGCUGGGCAACAUACCGAGGGGAACGUCCCCUCGGUAAUGGCGAAUGGGACCCA [U47A C57A]: 1.02.
The same measure for GGCCGGCAUGGUCCCAGCCUCCCCGCUGGCGCCGGCUGGGCAACAUACCGAGGGGACCGUCCCCUCGGUAAUGGCGAAUGGGACCCA [U23C U47A]: 1.03; for GGCCGGCAUGGUCCCAGCCUCCUCGCCGGCGCCGGCUGGGCAACAUUCCGAGGGGAGCGUCCCCUCGGUAAUGGCGAAUGGGACCCA [U27C C57G]: 0.639; for GGCCGGCAUGGUCGCAGCCUCCUCGCUGGCGCCGGCUGGGCAACAUUCCGAGGGGACCGUCCCCUCGGUAAUGGCGCAUGGGACCCA [C14G A77C]: 0.
Take GGCCGGCAUGGUCCCAGCCGCCUCGCUGGGGCCGGCUGGGCAACAUUCCGAGGGGACCGUCCCCUCGGUAAUGGCGAAUGGGACCCA [U20G C30G]: the self-cleavage was determined as 0.0554.
For GGCCGGCAUGGUCCCAGCCUCCUCGCUGUCGCCGGCUGGGCAACAUUCCGAGGGGACUGUCCCCUCGGUAAUGGCGAAUGGGACCCA [G29U C58U], the self-cleavage was 0.0292.
Take GGCCGGAAUGGUCCCAGCCUCCUCGCUGGCGCCGGCUGGGCAACAUUCCGAGCGGACCGUCCCCUCGGUAAUGGCGAAUGGGACCCA [C7A G53C]: the self-cleavage turned out to be 0.38.
Take GGCCGGCAUGGUCCCAGCCUCCUCGCUGCCGCCGGCUGGGCAACAUUCCGAGGGGACCGCCCCCUCGGUAAUGGCGAAUGGGACCCA [G29C U60C]: the self-cleavage came out at 0.0449.
As to GACCGGCAUGGUCCCAGCCUCCUCGCUGGCGCCGGCUGGGCAACAUUCCGCGGGGACCGUCCCCUCGGUAAUGGCGAAUGGGACCCA [G2A A51C], the self-cleavage is 0.203.
As for GGCCGGCAUGGUCCCAGCCUCCUCGCUGGCGCCGGCUGGGCAACAUUCCCAGGGGACCGUCUCCUCGGUAAUGGCGAAUGGGACCCA [G50C C62U], the self-cleavage is 0.939.
The result for GGCCGGCAUGGUCCCAGCCUCCUCGCUGGCGCCGGCUGGGCAACUUUCCGAGGGGACCGUCCCCUCGGUAAUGGCGCAUGGGACCCA [A45U A77C] reads 0.155; that for GGCCGGCAUGGUCCCAGCCUCCUCGCUGGCGCCGGCUGGGCAACAUUCCGAGGGGACCGUCACCUCAGUAAUGGCGAAUGGGACCCA [C62A G67A], 0.578.
Regarding GGCCGGCAUGGUCCCAGCCACCUCGUUGGCGCCGGCUGGGCAACAUUCCGAGGGGACCGUCCCCUCGGUAAUGGCGAAUGGGACCCA [U20A C26U], the self-cleavage was 0.158.
The result for GGCCGGCAUGGCCCCAGCCUCCUCGCUGGCGCCGGCUGGGCAACAUUCCGAGGGGACGGUCCCCUCGGUAAUGGCGAAUGGGACCCA [U12C C58G] reads 0.208; that for GGCCGGCUUGGUCCCAGCCUCCUCGCUGGCGCCGGCUGGUCAACAUUCCGAGGGGACCGUCCCCUCGGUAAUGGCGAAUGGGACCCA [A8U G40U], 0.415; that for GGCCGGCAUGGUCCCACCCUCCUCGCUGGCGCCGGCUGGGCAACAUUCCGAGGGGACCGUCCCCUCGGUGAUGGCGAAUGGGACCCA [G17C A70G], 0.346.
As to GGCCGGCAUGGUCCCAGCCUCCUCGCUGGCGCCGGCUGGGCAACAUUCCGAGGGGACCCUCCCCUCGGUAAUGGCGAAUGGGAUCCA [G59C C84U], the self-cleavage was found to be 0.774.
With GGCCGGCAAGGUCCCAGCCUCCUCGCUGGCGCCGGCUGGGCAACAUUCCGAGGGGACCGUCCCCGCGGUAAUGGCGAAUGGGACCCA [U9A U65G], the self-cleavage stood at 1.11.
The same measure for GGCCGGCAUGGUCCCAGCCUCCUCGCUGGCGCCGGCUGGGCAUCAUUCUGAGGGGACCGUCCCCUCGGUAAUGGCGAAUGGGACCCA [A43U C49U]: 0.554.
The result for GGCCGGUAUGGUCCCAGCCUCCUCGCUGGCGCCGGCUGGGCAACAUUCCGAGGGGACCGUCCCCUCGGGAAUGGCGAAUGGGACCCA [C7U U69G] reads 0.855; that for GGCCGGCAUGGUCCCAGCCUCCUCGCUGGCGCCGGCUGGGCAACAUUCCGAGGGGACCGUCCCCUCGGUAAUGGCGAAUGUGACUCA [G81U C85U], 0.31.
As for GGCCGGCAUGGUCCCAGCCUCCUCGCUGGCGCCGGCUGGGCAACAUUCCGAGGGGACCUUCCCCUCGGUAAUGUCGAAUGGGACCCA [G59U G74U], the self-cleavage stood at 0.502.
The result for GGCCGGCAUCGUCCCAGCCUCCUCGCUGGCGCCGGCGGGGCAACAUUCCGAGGGGACCGUCCCCUCGGUAAUGGCGAAUGGGACCCA [G10C U37G] reads 0.262.
